Experimental data taken from patent US20150152192A1 (SAMSUNG ELECTRONICS, published 2015).
Substitutions are numbered along the chain they refer to.

Key:
Experiment in all cases: ELISA, scFv coated, 250 ng FLAG-tagged Ang2 mutant, anti-FLAG-HRP
[1] = biological target: Ang2 with A449 mutated with alanine, tagged with FLAG (human) (UniProt O15123)
[2] = biological target: T1, Ang2 with F469 mutated with alanine, tagged with FLAG (human, UniProt O15123 19-496, limits assumed)
T1 sequence: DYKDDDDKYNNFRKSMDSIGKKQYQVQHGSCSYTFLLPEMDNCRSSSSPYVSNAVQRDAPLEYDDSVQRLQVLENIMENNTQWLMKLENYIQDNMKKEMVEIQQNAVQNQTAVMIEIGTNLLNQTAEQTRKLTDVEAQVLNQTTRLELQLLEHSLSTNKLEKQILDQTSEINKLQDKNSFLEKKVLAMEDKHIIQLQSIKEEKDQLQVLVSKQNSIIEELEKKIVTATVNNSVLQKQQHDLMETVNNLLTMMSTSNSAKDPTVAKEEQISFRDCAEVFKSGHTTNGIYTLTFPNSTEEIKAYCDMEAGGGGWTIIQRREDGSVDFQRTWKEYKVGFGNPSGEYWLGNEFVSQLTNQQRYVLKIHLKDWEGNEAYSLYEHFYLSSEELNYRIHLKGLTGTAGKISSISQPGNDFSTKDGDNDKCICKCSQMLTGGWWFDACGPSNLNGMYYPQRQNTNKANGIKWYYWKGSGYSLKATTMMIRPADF
Description: (§1) A 96-well MaxiSorp™ flat-bottom plate (Nunc) was coated with 50 μl of the anti-Ang2 scFv selected above. After that, the plate was washed five times with 0.05% (v/v) Tween-20-containing PBS and then blocked with 1% (v/v) BSA-containing PBS at a room temperature for 2 hours. […] Thereafter, the plate was washed five times with 0.05% Tween-20-containing PBS and then, an HRP-conjugated anti-FLAG antibody (SIGMA) diluted in 1% (v/v) BSA-containing PBS at 1:5,000 ratio (v/v) was added in the amount of 50 μl to each well to react at a room temperature for 1 hour, followed by washing five times with 0.1% (v/v) Tween-20-containing PBS.
(§2) Finally, 100 μl of TMB substrate (cell signal) was added to each well of the plate to induce color development and then, the reaction was ceased by the addition of 50 μl of 5N H₂SO₄ solution and OD450 values were measured on a plate reader (Molecular Devices).

[3] = biological target: T2, Ang2 with K468 mutated with alanine, tagged with FLAG (human, UniProt O15123 19-496, limits assumed)
T2 sequence: T1 sequence with K458A, A459F
Description: as §1, §2

[4] = biological target: T3, Ang2 with N467 mutated with alanine, tagged with FLAG (human, UniProt O15123 19-496, limits assumed)
T3 sequence: T1 sequence with N457A, A459F
Description: as §1, §2

[5] = biological target: T4, Ang2 with I434 mutated with alanine, tagged with FLAG (human, UniProt O15123 19-496, limits assumed)
T4 sequence: T1 sequence with I424A, A459F
Description: as §1, §2

Sequence of Ang2 with A449 mutated with alanine, tagged with FLAG (human) (O15123 other isoform, or with tags, fused parts or gaps, change not shown): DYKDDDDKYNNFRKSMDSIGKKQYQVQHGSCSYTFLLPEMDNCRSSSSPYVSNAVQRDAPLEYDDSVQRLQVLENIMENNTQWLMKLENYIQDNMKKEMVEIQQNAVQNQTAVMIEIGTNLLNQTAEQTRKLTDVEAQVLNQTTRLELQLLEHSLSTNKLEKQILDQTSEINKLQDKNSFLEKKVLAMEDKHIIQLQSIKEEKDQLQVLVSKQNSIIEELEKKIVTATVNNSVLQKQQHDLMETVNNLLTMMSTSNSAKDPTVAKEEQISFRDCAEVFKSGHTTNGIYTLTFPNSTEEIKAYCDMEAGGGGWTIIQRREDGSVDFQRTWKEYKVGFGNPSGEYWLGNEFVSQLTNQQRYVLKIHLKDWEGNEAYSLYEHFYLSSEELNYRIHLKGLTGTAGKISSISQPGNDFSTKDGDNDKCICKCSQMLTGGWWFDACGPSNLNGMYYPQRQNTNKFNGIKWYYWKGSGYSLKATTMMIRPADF

B1: SAIT-ANG-2-AB-2-E6 (scFv form) (scFv, V domains shown)
VH: EVQLLESGGGLVQTGGSLRLSCAASGFTFSDYAMSWVRQAPGKGLEWVSAIYPDSGNKYYADSVKGRFTISRDNSKNTLYLQMNSLRAEDTAVYYCARHSSDPKVKSGYYDDGMDVWGQGTLVAVSS
VL: QSVLTQPPSASGTPGQRVTISCSGSSSNIGNNAVNWYQQLPGTAPKLLIYADSNRPSGVPDRFSGSKSGTSASLAISGLRSEDEADYYCGSWDYSLSGYVFGGGTKLTVLG
notes: scFv from a phage display library, partly purified from E. coli periplasm on Ni-NTA and detected with anti-HA
Relative binding (%) with Mutant Ang2 compared to the binding with native Ang2 [1]: 3.3%
Relative binding (%) with Mutant Ang2 compared to the binding with native Ang2 [2]: 112%
Relative binding (%) with Mutant Ang2 compared to the binding with native Ang2 [3]: 94%
Relative binding (%) with Mutant Ang2 compared to the binding with native Ang2 [4]: 72.1%
Relative binding (%) with Mutant Ang2 compared to the binding with native Ang2 [5]: 5.3%

B2: SAIT-ANG-2-AB-7-C9 (scFv form) (scFv, V domains shown)
VH: EVQLLESGGGLVQPGGSLRLSCAASGFTFSNYAMSWVRQAPGKGLEWVSAISSGGGNIYYADSVKGRFTISRDNSKNTLYLQMNSLRAEDTAVYYCAKSGIQPSPPSMSSAYAMDVWGQGTLVTVSS
VL: B1 VL with A33D, N35Y, D52N, N54H, S91T
notes: scFv from a phage display library
Relative binding (%) with Mutant Ang2 compared to the binding with native Ang2 [1]: 14.5%
Relative binding (%) with Mutant Ang2 compared to the binding with native Ang2 [2]: 89.4%
Relative binding (%) with Mutant Ang2 compared to the binding with native Ang2 [3]: 97.3%
Relative binding (%) with Mutant Ang2 compared to the binding with native Ang2 [4]: 86.6%
Relative binding (%) with Mutant Ang2 compared to the binding with native Ang2 [5]: 8.7%

B3: SAIT-ANG-2-AB-8-A5 (scFv form) (scFv, V domains shown)
VH: EVQLLESGGGLVQPGGSLRLSCAASGFTFSDYYMSWVRQAPGKGLEWVSGIYPSGGSTYYADSVKGRFTISRDNSKNTLYLQMNSLRAEDTAVYYCARDPSTLTYAGFDYWGQGTLVTVSS
VL: B1 VL with A33Y, N35T, N54H, G90A, S91T
notes: as for B2
Relative binding (%) with Mutant Ang2 compared to the binding with native Ang2 [2]: 102%
Relative binding (%) with Mutant Ang2 compared to the binding with native Ang2 [3]: 101%
Relative binding (%) with Mutant Ang2 compared to the binding with native Ang2 [4]: 90.7%
Relative binding (%) with Mutant Ang2 compared to the binding with native Ang2 [5]: 4%

B4: SAIT-ANG-2-AB-4-F11 (scFv form) (scFv, V domains shown)
VH: EVQLLESGGGLVQTGGSLRLSCAASGFTFSDYAMSWVRQAPGKGLEWVSSIYPDDGNTYYADSVKGRFTISRDNSKNTLYLQMNSLRAEDTAVYYCAKHPVRLNLHPMYYYYGMDVWGQGTLVTVSS
VL: B1 VL with S23T, N35S, A51S, N54Q, G90A, S91T, G98A
notes: as for B2
Relative binding (%) with Mutant Ang2 compared to the binding with native Ang2 [1]: 16.7%
Relative binding (%) with Mutant Ang2 compared to the binding with native Ang2 [2]: 105%
Relative binding (%) with Mutant Ang2 compared to the binding with native Ang2 [3]: 102%
Relative binding (%) with Mutant Ang2 compared to the binding with native Ang2 [4]: 92%
Relative binding (%) with Mutant Ang2 compared to the binding with native Ang2 [5]: 69%

B5: SAIT-ANG-2-AB-4-F5 (scFv form) (scFv, V domains shown)
VH: EVQLLESGGGLVQPGGSLRLSCAASGFTFSDYDMSWVRQAPGKGLEWVSSISHGDSNKYYADSVKGRFTISRDNSKNTLYLQMNSLRAEDTAVYYCAKSSGIQESPPTYYYYGMDVWGQGTLVTVSS
VL: B1 VL with N31S
notes: as for B2
Relative binding (%) with Mutant Ang2 compared to the binding with native Ang2 [1]: 14%
Relative binding (%) with Mutant Ang2 compared to the binding with native Ang2 [2]: 259%
Relative binding (%) with Mutant Ang2 compared to the binding with native Ang2 [3]: 87.4%
Relative binding (%) with Mutant Ang2 compared to the binding with native Ang2 [4]: 11.3%
Relative binding (%) with Mutant Ang2 compared to the binding with native Ang2 [5]: 68.6%

B6: SAIT-ANG-2-AB-4-C11 (scFv form) (scFv, V domains shown)
VH: EVQLLESGGGLVQPGGSLRLSCAASGFTFSDYAMSWVRQAPGKGLEWVSSIYPDDGNTYYADSVKGRFTISRDNSKNTLYLQMNSLRAEDTAVYYCARHTSHHTSIDGYYYYGMDGWGQGTLVTVSS
VL: B1 VL with S23T, A33D, N35S, A51S, N54K
notes: as for B2
Relative binding (%) with Mutant Ang2 compared to the binding with native Ang2 [1]: 4.8%
Relative binding (%) with Mutant Ang2 compared to the binding with native Ang2 [2]: 102%
Relative binding (%) with Mutant Ang2 compared to the binding with native Ang2 [3]: 94.8%
Relative binding (%) with Mutant Ang2 compared to the binding with native Ang2 [4]: 81.7%
Relative binding (%) with Mutant Ang2 compared to the binding with native Ang2 [5]: 7.2%

B7: SAIT-ANG-2-AB-3-D3 (scFv form) (scFv, V domains shown)
VH: EVQLLESGGGLVQPGGSLRLSCAASGFTFSDYDMSWVRQAPGKGLEWVSGISSDDGNTYYADSVKGRFTISRDNSKNTLYLQMNSLRAEDTAVYYCARPTIDKYTLRGYYSYGMDVWGQGTLVTVSS
VL: B1 VL with S23T, N31S, A33Y, N35S, A51S, S53N, N54K, S91T, Y94D, S97N
notes: as for B2
Relative binding (%) with Mutant Ang2 compared to the binding with native Ang2 [1]: 101%
Relative binding (%) with Mutant Ang2 compared to the binding with native Ang2 [2]: 96.4%
Relative binding (%) with Mutant Ang2 compared to the binding with native Ang2 [3]: 95.9%
Relative binding (%) with Mutant Ang2 compared to the binding with native Ang2 [4]: 90.9%
Relative binding (%) with Mutant Ang2 compared to the binding with native Ang2 [5]: 93.4%
